Drawing on publication PMC4102529, “FRET Based Quantification and Screening Technology Platform for the Interactions of Leukocyte Function-Associated Antigen-1 (LFA-1) with InterCellular Adhesion Molecule-1 (ICAM-1)” (PLoS ONE, 2014), this text covers inhibition efficiency of the LFA-1/D1-D2-Fc interaction for two molecules.

The target in this experiment is human recombinant ICAM-1 (D1-D2-Fc), Alexa Fluor 555 conjugate (human) (UniProt P05362). Nature of the experiment: FRET or BRET; steady-state, in solution competition screening, 96-well plate; Alexa Fluor 488-LFA-1 (100 nM) mixed with peptide (0.02, 0.2, 2, 20 µM), then incubated with Alexa Fluor 555-D1-D2-Fc (100 nM) for 30 min in the dark; PBS pH 7.4, 1 mM EGTA, 2 mM Mg2+; inhibition efficiency from the FRET efficiency. (In general: In BRET a luciferase serves as donor, and the signal depends on an acceptor being close.)
human recombinant ICAM-1 (D1-D2-Fc), Alexa Fluor 555 conjugate (human), sequence (P05362 28-532): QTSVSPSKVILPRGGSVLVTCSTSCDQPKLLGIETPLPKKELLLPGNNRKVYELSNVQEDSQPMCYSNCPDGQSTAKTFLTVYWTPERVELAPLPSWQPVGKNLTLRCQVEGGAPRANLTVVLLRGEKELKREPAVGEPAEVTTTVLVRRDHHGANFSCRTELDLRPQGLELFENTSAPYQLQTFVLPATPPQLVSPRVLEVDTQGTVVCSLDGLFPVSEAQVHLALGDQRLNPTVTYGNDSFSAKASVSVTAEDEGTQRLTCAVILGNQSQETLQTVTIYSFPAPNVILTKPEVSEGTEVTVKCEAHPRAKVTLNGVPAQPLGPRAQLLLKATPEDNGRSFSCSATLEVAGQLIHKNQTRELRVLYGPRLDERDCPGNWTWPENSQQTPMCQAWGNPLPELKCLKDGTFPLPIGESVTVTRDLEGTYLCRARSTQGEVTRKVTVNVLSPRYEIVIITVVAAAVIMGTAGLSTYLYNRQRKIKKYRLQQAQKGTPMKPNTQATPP

Take APLFYGEQRG [CD11a(456–465) peptide]: the inhibition efficiency of the LFA-1/D1-D2-Fc interaction at 0.02 µM peptide stood at 12.2%, the inhibition efficiency of the LFA-1/D1-D2-Fc interaction at 0.2 µM peptide stood at 20.3%, the inhibition efficiency of the LFA-1/D1-D2-Fc interaction at 2 µM peptide turned out to be 36.5% and the inhibition efficiency of the LFA-1/D1-D2-Fc interaction at 20 µM peptide was 51.4%.

For ITDGEATDSGNIDAAKDIIRYIIGI [CD11a(237–261) peptide], the inhibition efficiency of the LFA-1/D1-D2-Fc interaction at 0.02 µM peptide worked out at 40.8%, the inhibition efficiency of the LFA-1/D1-D2-Fc interaction at 0.2 µM peptide was determined as 47%, the inhibition efficiency of the LFA-1/D1-D2-Fc interaction at 2 µM peptide came out at 53.2% and the inhibition efficiency of the LFA-1/D1-D2-Fc interaction at 20 µM peptide was found to be 65.1%.
